Source: patent US20190262387A1
No end group written: not given here.

What was measured:
[1] = molecular target: collagen I (thin coating on polystyrene tissue culture plate); experiment: normalized fluorescence of PEG-fluorescein conjugated peptide on collagen I coated plate after washing; reference is scrambled collagen I binding peptide (FIG. 2D)
[2] = molecular target: collagen II (thin coating on polystyrene tissue culture plate); experiment: normalized fluorescence of PEG-fluorescein conjugated peptide on collagen II coated plate after washing; reference is scrambled collagen II binding peptide (FIG. 2I)

| normalized fluorescence intensity relative to scrambled peptide (times that of scrambled peptide) [1] | normalized fluorescence intensity relative to scrambled peptide (times that of scrambled peptide) [2] | Binder |
| --- | --- | --- |
| 1.55 | – | YSFYSDESLQ (also: conjugated to PEG-fluorescein, site not given here) [collagen I binding peptide conjugated to PEG-fluorescein] |
| – | 1.65 | WYRGRL (also: conjugated to PEG-fluorescein, site not given here) [collagen II binding peptide conjugated to PEG-fluorescein] |
